This is an account of results in article PMC4258232 (Cell stem cell, 2014).

The target in assay [1] is T1, GST-SET7/9 (full length) (UniProt Q8WTS6 1-366).
T1 sequence (looked up): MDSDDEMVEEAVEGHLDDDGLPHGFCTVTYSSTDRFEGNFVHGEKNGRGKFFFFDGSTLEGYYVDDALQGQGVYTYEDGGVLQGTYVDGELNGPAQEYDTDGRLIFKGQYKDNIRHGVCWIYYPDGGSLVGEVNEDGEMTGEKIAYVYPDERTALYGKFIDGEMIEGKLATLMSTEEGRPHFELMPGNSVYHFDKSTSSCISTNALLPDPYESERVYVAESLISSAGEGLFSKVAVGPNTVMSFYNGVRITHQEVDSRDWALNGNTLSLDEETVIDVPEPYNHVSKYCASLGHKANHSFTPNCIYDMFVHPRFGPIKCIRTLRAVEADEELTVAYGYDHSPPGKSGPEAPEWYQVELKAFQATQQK
In words: pull-down.

The target of assay [2] is T1, GST-SET7/9 (full length). In words: pull-down. This is another data set of the same source.

Residue numbers refer to the chain shown, from its start. In names and notes the source's numbering stands. Where two headings read alike, the source gives them in different places.

B1: 6×HIS-LIN28A (full length) (natural protein, UniProt Q9H9Z2 1-209, looked up)
chain: MGSVSNQQFAGGCAKAAEEAPEEAPEDAARAADEPQLLHGAGICKWFNVRMGFGFLSMTARAGVALDPPVDVFVHQSKLHMEGFRSLKEGEAVEFTFKKSAKGLESIRVTGPGGVFCIGSERRPKGKSMQKRRSKGDRCYNCGGLDHHAKECKLPPQPKKCHFCQSISHMVASCPLKAQQGPSAQGKPTYFREEEEEIHSPTLLPEAQN
Consider B1, for which, in assay [1], the binding result was “binds”.

B2: 6×HIS-LIN28A-K135R (full length) (natural protein, UniProt Q9H9Z2 1-209, looked up)
chain: B1 chain with K135R
Regarding B2, the binding result in assay [1] is reported as “binds”.

B3: LIN28A carboxyl terminus (amino acids 125-209) (domain or fragment, UniProt Q9H9Z2 125-209, looked up)
chain: KGKSMQKRRSKGDRCYNCGGLDHHAKECKLPPQPKKCHFCQSISHMVASCPLKAQQGPSAQGKPTYFREEEEEIHSPTLLPEAQN
As to B3, in assay [2], the binding result is recorded as “binds”.
